Measurements as given in patent US20030091568A1, “Inhibitors for the formation of soluble human CD23” (priority 2000, published 2003).

T1: ADAM10 (Homo sapiens, UniProt O14672)
T1 sequence (O14672 214-748): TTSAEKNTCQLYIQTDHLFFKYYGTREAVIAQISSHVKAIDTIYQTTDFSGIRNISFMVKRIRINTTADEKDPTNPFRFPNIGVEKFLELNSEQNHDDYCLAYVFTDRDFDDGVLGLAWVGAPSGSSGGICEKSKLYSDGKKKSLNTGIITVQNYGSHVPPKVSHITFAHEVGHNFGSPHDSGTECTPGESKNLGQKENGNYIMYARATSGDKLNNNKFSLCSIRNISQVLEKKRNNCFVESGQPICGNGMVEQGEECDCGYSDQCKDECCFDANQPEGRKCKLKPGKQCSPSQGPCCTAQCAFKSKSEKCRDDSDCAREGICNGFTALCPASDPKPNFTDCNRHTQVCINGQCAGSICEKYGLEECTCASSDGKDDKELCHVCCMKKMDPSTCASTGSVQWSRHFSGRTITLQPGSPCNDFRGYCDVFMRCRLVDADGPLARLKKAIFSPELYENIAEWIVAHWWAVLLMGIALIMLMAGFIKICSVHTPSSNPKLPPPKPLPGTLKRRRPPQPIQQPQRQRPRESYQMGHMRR

T2: ADAM9 (Mus musculus, UniProt Q61072)
T2 construct: expressed in transfected cells; host or cells: CHO AA8 Tet-Off cells (Clontech), clone 3, co-expressing human CD23b
T2 sequence (Q61072 206-845 limits assumed): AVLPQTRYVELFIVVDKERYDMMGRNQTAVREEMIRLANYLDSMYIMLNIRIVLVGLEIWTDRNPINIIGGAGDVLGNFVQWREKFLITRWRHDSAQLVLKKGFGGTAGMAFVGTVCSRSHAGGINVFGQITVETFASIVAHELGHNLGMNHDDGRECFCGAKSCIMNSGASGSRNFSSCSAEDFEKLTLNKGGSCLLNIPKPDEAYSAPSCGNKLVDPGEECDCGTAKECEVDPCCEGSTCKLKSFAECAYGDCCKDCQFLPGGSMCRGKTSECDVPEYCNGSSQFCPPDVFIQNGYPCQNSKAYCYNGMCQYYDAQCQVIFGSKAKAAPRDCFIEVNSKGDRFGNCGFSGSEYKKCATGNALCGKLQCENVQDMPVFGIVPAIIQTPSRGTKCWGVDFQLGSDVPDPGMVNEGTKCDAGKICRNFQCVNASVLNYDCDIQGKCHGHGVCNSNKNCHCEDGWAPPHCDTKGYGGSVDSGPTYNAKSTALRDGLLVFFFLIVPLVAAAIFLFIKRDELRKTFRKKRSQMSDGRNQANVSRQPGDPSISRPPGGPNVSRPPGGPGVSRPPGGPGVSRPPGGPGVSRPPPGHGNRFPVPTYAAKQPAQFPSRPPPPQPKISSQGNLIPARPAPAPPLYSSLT


Assays:
[1] = molecular target: T1, ADAM10; settings: stated as known; cited from earlier work
[2] = molecular target: T2, ADAM9; experiment: CD23 shedding in CHO AA8 clone 3 cells with tet-regulated ADAM9 "On" (s-CD23 ELISA); format: cell-based, murine; settings: CHO AA8 clone 3, absence of tetracycline (ADAM9 "On"), 16 hours; 2 μM batimastat or 20 nM-1 μM TIMP; FIG. 3A
Method: CHO AA8 cells (Clontech), which constitutively express human CD23b and a tet regulatable ADAM9 (clone 3, described above), were cultured in the absence of tetracycline (ADAM9 expression “On”) as well as the presence or absence of the metalloproteinase inhibitor batimastat (BB-94, British Biotechnology) as a broad spectrum MMP inhibitor, as well as various concentrations of either TIMP-1, TIMP-2 or TIMP-3. After 16 hours, aliquots of the respective culture supernatants were analysed by ELISA for the formation of s-CD23 (The Binding Site).
[…] cells were cultured in the presence (ADAM9 expression “Off”) or absence (ADAM9 expression “On”) of tetracylin (Tc). Under both conditions, the influence of batimastat (BB-94) on CD23 shedding was analyzed. The concentration of s-CD23 in the culture supernatants was determined by ELISA. In parallel, the produced s-CD23 cleavage products were analyzed by Western blot analyses (FIG. 4). Untransfected CHO AA8 cells (WT) were used as a negative control in the ELISA assays. In the absence of Tc (ADAM9 expression “On”), about 2-3 times the amount of s-CD23 was produced compared to cells kept in the presence of Tc (ADAM9 expression “Off”). […] The 33 kDa form of s-CD23 and, in minor amounts, the 25 kDa cleavage fragment were detected by Western blot analyses. […]

| block of proteolytic release of CD23 from the membrane (formation of s-CD23 by ELISA) [2] | Molecule | inhibition of ADAM10 [1] |
| --- | --- | --- |
| could not be inhibited | TIMP-1: tissue inhibitor of metalloproteinases 1 | inhibited |
| could not be inhibited | TIMP-3: tissue inhibitor of metalloproteinases 3 (protein, UniProt P35625 24-211, looked up) Metalloproteinase inhibitor 3: CTCSPSHPQDAFCNSDIVIRAKVVGKKLVKEGPFGTLVYTIKQMKMYRGFTKMPHVQYIHTEASESLCGLKLEVNKYQYLLTGRVYDGKMYTGLCNFVERWDQLTLSQRKGLNYRYHLGCNCKIKSCYYLPCFVTSKNECLWTDMLSNFGYPGYQSKHYACIRQKGGYCSWYRGWAPPDKSIINATDP | inhibited |
